Consider one protein from publication PMC11839083 (bioRxiv, 2025).

The data set concerns the molecule itself. Description: cryo-EM structure.

B1: C1-GS4 (Aae NtrC1 residues 121–387 with GSGSLGQYL at the C-terminus) (other)
chain: LRKENELLRREKDLKEEEYVFESPKMKEILEKIKKISCAECPVLITGESGVGKEVVARLIHKLSDRSKEPFVALNVASIPRDIFEAELFGYEKGAFTGAVSSKEGFFELADGGTLFLDEIGELSLEAQAKLLRVIESGKFYRLGGRKEIEVNVRILAATNRNIKELVKEGKFREDLYYRLGVIEIEIPPLRERKEDIIPLANHFLKKFSRKYAKEVEGFTKSAQELLLSYPWYGNVRELKNVIERAVLFSEGKFIDRGELSCLVNSKGSGSLGQYL
Take B1: the binding result is given as “binds”.
